Source: the RNAGym collection of RNA variant scans (doi:10.1101/gr.219683.116)

B1: mRNA-splicing (parent)
chain: AGUUGCUGCUGGGAGCUCCAGCACAGUGAAAUGGACAGAAGGGCAGAGCAA

Variants of: B1
Assay: exon inclusion enrichment index; higher = more inclusion; WT1 exon 5 minigene, HEK293

**Q.** Which “exon inclusion enrichment index” value does the source give for AGUUCUUCCGGGGAGCUCCAGCACAGUGAAAUGGACAGAAGGGCAGAGCAA here?
**A.** The value was 1.68.

**Q.** For AGUUCUUUACGGGAGCUCCAGCACAGUGAAAUGGACAGAAGGGCAGAGCAA, which “exon inclusion enrichment index” value is on record?
**A.** Its value is 0.494.

**Q.** Which “exon inclusion enrichment index” value does the source give for AGUUCUUUGCGGGAGCUCCAGCACAGUGAAAUGGACAGAAGGGCAGAGCAA here?
**A.** The value was 0.68.

**Q.** For AGUUCUUUUUGGGAGCUCCAGCACAGUGAAAUGGACAGAAGGGCAGAGCAA, which “exon inclusion enrichment index” value is on record?
**A.** The value was 0.106.

**Q.** For AGUUCUUUUCGGGAGCUCCAGCACAGUGAAAUGGACAGAAGGGCAGAGCAA, which “exon inclusion enrichment index” value is on record?
**A.** Its value is 0.615.

**Q.** Which “exon inclusion enrichment index” value does the source give for AGUUCUUUCCGGGAGCUCCAGCACAGUGAAAUGGACAGAAGGGCAGAGCAA here?
**A.** The value was 1.11.

**Q.** Which “exon inclusion enrichment index” value does the source give for AGUUCUAGAAGGGAGCUCCAGCACAGUGAAAUGGACAGAAGGGCAGAGCAA here?
**A.** The value was 0.0605.

**Q.** Which “exon inclusion enrichment index” value does the source give for AGUUCUAGUCGGGAGCUCCAGCACAGUGAAAUGGACAGAAGGGCAGAGCAA here?
**A.** The value was 0.234.

**Q.** With AGUUCUAAUCGGGAGCUCCAGCACAGUGAAAUGGACAGAAGGGCAGAGCAA as the variant, how does the “exon inclusion enrichment index” value read?
**A.** Its value is 0.757.

**Q.** Which “exon inclusion enrichment index” value does the source give for AGUUCUAACAGGGAGCUCCAGCACAGUGAAAUGGACAGAAGGGCAGAGCAA here?
**A.** The value was 0.064.

**Q.** With AGUUCUACUCGGGAGCUCCAGCACAGUGAAAUGGACAGAAGGGCAGAGCAA as the variant, how does the “exon inclusion enrichment index” value read?
**A.** The value was 1.66.

**Q.** For AGUUCUAUAUGGGAGCUCCAGCACAGUGAAAUGGACAGAAGGGCAGAGCAA, which “exon inclusion enrichment index” value is on record?
**A.** The value was 0.195.

**Q.** For AGUUCUAUUCGGGAGCUCCAGCACAGUGAAAUGGACAGAAGGGCAGAGCAA, which “exon inclusion enrichment index” value is on record?
**A.** The value was 0.663.

**Q.** Which “exon inclusion enrichment index” value does the source give for AGUUCUAGCCGGGAGCUCCAGCACAGUGAAAUGGACAGAAGGGCAGAGCAA here?
**A.** The value was 0.444.

**Q.** Which “exon inclusion enrichment index” value does the source give for AGUUCUCGACGGGAGCUCCAGCACAGUGAAAUGGACAGAAGGGCAGAGCAA here?
**A.** The value was 3.23.

**Q.** Which “exon inclusion enrichment index” value does the source give for AGUUCUCGUCGGGAGCUCCAGCACAGUGAAAUGGACAGAAGGGCAGAGCAA here?
**A.** Its value is 3.09.

**Q.** With AGUUCUCAUCGGGAGCUCCAGCACAGUGAAAUGGACAGAAGGGCAGAGCAA as the variant, how does the “exon inclusion enrichment index” value read?
**A.** Its value is 1.99.

**Q.** For AGUUCUCACAGGGAGCUCCAGCACAGUGAAAUGGACAGAAGGGCAGAGCAA, which “exon inclusion enrichment index” value is on record?
**A.** Its value is 0.137.

**Q.** For AGUUCUCACCGGGAGCUCCAGCACAGUGAAAUGGACAGAAGGGCAGAGCAA, which “exon inclusion enrichment index” value is on record?
**A.** The value was 1.77.

**Q.** Which “exon inclusion enrichment index” value does the source give for AGUUCUCCUCGGGAGCUCCAGCACAGUGAAAUGGACAGAAGGGCAGAGCAA here?
**A.** The value was 1.73.

**Q.** With AGUUCUCUUCGGGAGCUCCAGCACAGUGAAAUGGACAGAAGGGCAGAGCAA as the variant, how does the “exon inclusion enrichment index” value read?
**A.** Its value is 1.35.

**Q.** With AGUUCUCGCCGGGAGCUCCAGCACAGUGAAAUGGACAGAAGGGCAGAGCAA as the variant, how does the “exon inclusion enrichment index” value read?
**A.** Its value is 3.59.

**Q.** For AGUUCUGGAUGGGAGCUCCAGCACAGUGAAAUGGACAGAAGGGCAGAGCAA, which “exon inclusion enrichment index” value is on record?
**A.** The value was 1.42.

**Q.** For AGUUCUGGUCGGGAGCUCCAGCACAGUGAAAUGGACAGAAGGGCAGAGCAA, which “exon inclusion enrichment index” value is on record?
**A.** The value was 0.743.

**Q.** Which “exon inclusion enrichment index” value does the source give for AGUUCUGAUCGGGAGCUCCAGCACAGUGAAAUGGACAGAAGGGCAGAGCAA here?
**A.** The value was 1.49.

**Q.** For AGUUCUGACAGGGAGCUCCAGCACAGUGAAAUGGACAGAAGGGCAGAGCAA, which “exon inclusion enrichment index” value is on record?
**A.** The value was 0.0911.

**Q.** With AGUUCUGCUCGGGAGCUCCAGCACAGUGAAAUGGACAGAAGGGCAGAGCAA as the variant, how does the “exon inclusion enrichment index” value read?
**A.** The value was 1.54.

**Q.** For AGUUCUGUUCGGGAGCUCCAGCACAGUGAAAUGGACAGAAGGGCAGAGCAA, which “exon inclusion enrichment index” value is on record?
**A.** Its value is 1.07.

**Q.** For AGUUCUGGCCGGGAGCUCCAGCACAGUGAAAUGGACAGAAGGGCAGAGCAA, which “exon inclusion enrichment index” value is on record?
**A.** Its value is 0.82.

**Q.** For AGUUCUUGCCGGGAGCUCCAGCACAGUGAAAUGGACAGAAGGGCAGAGCAA, which “exon inclusion enrichment index” value is on record?
**A.** The value was 1.82.

**Q.** Which “exon inclusion enrichment index” value does the source give for AGUUCCUACAGGGAGCUCCAGCACAGUGAAAUGGACAGAAGGGCAGAGCAA here?
**A.** The value was 0.0176.

**Q.** Which “exon inclusion enrichment index” value does the source give for AGUUCCUCUCGGGAGCUCCAGCACAGUGAAAUGGACAGAAGGGCAGAGCAA here?
**A.** Its value is 0.273.

**Q.** Which “exon inclusion enrichment index” value does the source give for AGUUCCUUUUGGGAGCUCCAGCACAGUGAAAUGGACAGAAGGGCAGAGCAA here?
**A.** Its value is 0.0356.

**Q.** With AGUUCCAGAAGGGAGCUCCAGCACAGUGAAAUGGACAGAAGGGCAGAGCAA as the variant, how does the “exon inclusion enrichment index” value read?
**A.** Its value is 0.367.

**Q.** Which “exon inclusion enrichment index” value does the source give for AGUUCCAACAGGGAGCUCCAGCACAGUGAAAUGGACAGAAGGGCAGAGCAA here?
**A.** The value was 0.0423.

**Q.** Which “exon inclusion enrichment index” value does the source give for AGUUCCACUCGGGAGCUCCAGCACAGUGAAAUGGACAGAAGGGCAGAGCAA here?
**A.** The value was 0.259.

**Q.** Which “exon inclusion enrichment index” value does the source give for AGUUCCAUAUGGGAGCUCCAGCACAGUGAAAUGGACAGAAGGGCAGAGCAA here?
**A.** The value was 0.077.

**Q.** Which “exon inclusion enrichment index” value does the source give for AGUUCCAGCCGGGAGCUCCAGCACAGUGAAAUGGACAGAAGGGCAGAGCAA here?
**A.** Its value is 1.62.

**Q.** With AGUUCCCGACGGGAGCUCCAGCACAGUGAAAUGGACAGAAGGGCAGAGCAA as the variant, how does the “exon inclusion enrichment index” value read?
**A.** The value was 0.262.

**Q.** Which “exon inclusion enrichment index” value does the source give for AGUUCCCACAGGGAGCUCCAGCACAGUGAAAUGGACAGAAGGGCAGAGCAA here?
**A.** Its value is 0.03.

**Q.** Which “exon inclusion enrichment index” value does the source give for AGUUCCCACCGGGAGCUCCAGCACAGUGAAAUGGACAGAAGGGCAGAGCAA here?
**A.** The value was 0.327.

**Q.** For AGUUCCCCUCGGGAGCUCCAGCACAGUGAAAUGGACAGAAGGGCAGAGCAA, which “exon inclusion enrichment index” value is on record?
**A.** The value was 0.0413.

**Q.** For AGUUCCCGCCGGGAGCUCCAGCACAGUGAAAUGGACAGAAGGGCAGAGCAA, which “exon inclusion enrichment index” value is on record?
**A.** The value was 0.696.

**Q.** With AGUUCCGGAUGGGAGCUCCAGCACAGUGAAAUGGACAGAAGGGCAGAGCAA as the variant, how does the “exon inclusion enrichment index” value read?
**A.** The value was 1.66.

**Q.** For AGUUCCGACAGGGAGCUCCAGCACAGUGAAAUGGACAGAAGGGCAGAGCAA, which “exon inclusion enrichment index” value is on record?
**A.** Its value is 0.113.

**Q.** For AGUUCCGCUCGGGAGCUCCAGCACAGUGAAAUGGACAGAAGGGCAGAGCAA, which “exon inclusion enrichment index” value is on record?
**A.** Its value is 0.323.

**Q.** Which “exon inclusion enrichment index” value does the source give for AGUUCCGGCCGGGAGCUCCAGCACAGUGAAAUGGACAGAAGGGCAGAGCAA here?
**A.** Its value is 1.34.

**Q.** Which “exon inclusion enrichment index” value does the source give for AGUUCCUGCCGGGAGCUCCAGCACAGUGAAAUGGACAGAAGGGCAGAGCAA here?
**A.** Its value is 1.29.

**Q.** For AGUUUCUGCUGGGAGCUCCAGCACAGUGAAAUGGACAGAAGGGCAGAGCAA, which “exon inclusion enrichment index” value is on record?
**A.** The value was 0.103.

**Q.** With AGUUUAUGCUGGGAGCUCCAGCACAGUGAAAUGGACAGAAGGGCAGAGCAA as the variant, how does the “exon inclusion enrichment index” value read?
**A.** Its value is 0.00655.

**Q.** For AGUUUAUCUCGGGAGCUCCAGCACAGUGAAAUGGACAGAAGGGCAGAGCAA, which “exon inclusion enrichment index” value is on record?
**A.** The value was 0.611.
